Data reported in patent US20140087995A1 (published 2014).
Numbered stars: 1 amine (or outer) side, 2 acyl side, 3 side chain; on linkers, the order of the positions; unused ones are H or OH. Bridge positions count the residues as written; N and C are the ends. Side chains are listed from the residue outwards. Ends that are not written are not given here. * marks the point of attachment. C20 diacid = O=C(O)CCCCCCCCCCCCCCCCCCC(=O)*; γGlu = O=C(O)[C@H](CCC(=O)[*:2])N[*:1]

B1: N^ε1-[(4S)-4-carboxy-4-(19-carboxynonadecanoylamino)butanoyl]-[His14,Arg17,Pro21,Pro27,Arg34]-h-amylin (peptide)
peptide: K([γGlu-C20 diacid])CNTATCATQRLAHFLRHSSPNFGAIPSSTNVGRNTY-NH2
modifications: disulfide 2-7; N-terminus assumed
SMILES: CC[C@H](C)[C@H](NC(=O)[C@H](C)NC(=O)CNC(=O)[C@H](Cc1ccccc1)NC(=O)[C@H](CC(N)=O)NC(=O)[C@@H]1CCCN1C(=O)[C@H](CO)NC(=O)[C@H](CO)NC(=O)[C@H](Cc1c[nH]cn1)NC(=O)[C@H](CCCNC(=N)N)NC(=O)[C@H](CC(C)C)NC(=O)[C@H](Cc1ccccc1)NC(=O)[C@H](Cc1c[nH]cn1)NC(=O)[C@H](C)NC(=O)[C@H](CC(C)C)NC(=O)[C@H](CCCNC(=N)N)NC(=O)[C@H](CCC(N)=O)NC(=O)[C@@H](NC(=O)[C@H](C)NC(=O)[C@@H]1CSSC[C@H](NC(=O)[C@@H](N)CCCCNC(=O)CC[C@H](NC(=O)CCCCCCCCCCCCCCCCCCC(=O)O)C(=O)O)C(=O)N[C@@H](CC(N)=O)C(=O)N[C@@H]([C@@H](C)O)C(=O)N[C@@H](C)C(=O)N[C@@H]([C@@H](C)O)C(=O)N1)[C@@H](C)O)C(=O)N1CCC[C@H]1C(=O)N[C@@H](CO)C(=O)N[C@@H](CO)C(=O)N[C@H](C(=O)N[C@@H](CC(N)=O)C(=O)N[C@H](C(=O)NCC(=O)N[C@@H](CCCNC(=N)N)C(=O)N[C@@H](CC(N)=O)C(=O)N[C@H](C(=O)N[C@@H](Cc1ccc(O)cc1)C(N)=O)[C@@H](C)O)C(C)C)[C@@H](C)O
notes: also called 85; compound 85
B2: N^ε1-[(4S)-4-carboxy-4-(19-carboxynonadecanoylamino)butanoyl]-[His14,Arg17,Pro21,Pro27]-h-amylin (peptide)
peptide: K([γGlu-C20 diacid])CNTATCATQRLAHFLRHSSPNFGAIPSSTNVGSNTY-NH2
modifications: disulfide 2-7; N-terminus assumed
SMILES: CC[C@H](C)[C@H](NC(=O)[C@H](C)NC(=O)CNC(=O)[C@H](Cc1ccccc1)NC(=O)[C@H](CC(N)=O)NC(=O)[C@@H]1CCCN1C(=O)[C@H](CO)NC(=O)[C@H](CO)NC(=O)[C@H](Cc1c[nH]cn1)NC(=O)[C@H](CCCNC(=N)N)NC(=O)[C@H](CC(C)C)NC(=O)[C@H](Cc1ccccc1)NC(=O)[C@H](Cc1c[nH]cn1)NC(=O)[C@H](C)NC(=O)[C@H](CC(C)C)NC(=O)[C@H](CCCNC(=N)N)NC(=O)[C@H](CCC(N)=O)NC(=O)[C@@H](NC(=O)[C@H](C)NC(=O)[C@@H]1CSSC[C@H](NC(=O)[C@@H](N)CCCCNC(=O)CC[C@H](NC(=O)CCCCCCCCCCCCCCCCCCC(=O)O)C(=O)O)C(=O)N[C@@H](CC(N)=O)C(=O)N[C@@H]([C@@H](C)O)C(=O)N[C@@H](C)C(=O)N[C@@H]([C@@H](C)O)C(=O)N1)[C@@H](C)O)C(=O)N1CCC[C@H]1C(=O)N[C@@H](CO)C(=O)N[C@@H](CO)C(=O)N[C@H](C(=O)N[C@@H](CC(N)=O)C(=O)N[C@H](C(=O)NCC(=O)N[C@@H](CO)C(=O)N[C@@H](CC(N)=O)C(=O)N[C@H](C(=O)N[C@@H](Cc1ccc(O)cc1)C(N)=O)[C@@H](C)O)C(C)C)[C@@H](C)O
notes: also called 70; compound 70
B3: N^ε1-[(4S)-4-carboxy-4-(19-carboxynonadecanoylamino)butanoyl]-[His14,Arg17,Pro21,Pro27,His35]-h-amylin (peptide)
peptide: K([γGlu-C20 diacid])CNTATCATQRLAHFLRHSSPNFGAIPSSTNVGSHTY-NH2
modifications: disulfide 2-7; N-terminus assumed
SMILES: CC[C@H](C)[C@H](NC(=O)[C@H](C)NC(=O)CNC(=O)[C@H](Cc1ccccc1)NC(=O)[C@H](CC(N)=O)NC(=O)[C@@H]1CCCN1C(=O)[C@H](CO)NC(=O)[C@H](CO)NC(=O)[C@H](Cc1c[nH]cn1)NC(=O)[C@H](CCCNC(=N)N)NC(=O)[C@H](CC(C)C)NC(=O)[C@H](Cc1ccccc1)NC(=O)[C@H](Cc1c[nH]cn1)NC(=O)[C@H](C)NC(=O)[C@H](CC(C)C)NC(=O)[C@H](CCCNC(=N)N)NC(=O)[C@H](CCC(N)=O)NC(=O)[C@@H](NC(=O)[C@H](C)NC(=O)[C@@H]1CSSC[C@H](NC(=O)[C@@H](N)CCCCNC(=O)CC[C@H](NC(=O)CCCCCCCCCCCCCCCCCCC(=O)O)C(=O)O)C(=O)N[C@@H](CC(N)=O)C(=O)N[C@@H]([C@@H](C)O)C(=O)N[C@@H](C)C(=O)N[C@@H]([C@@H](C)O)C(=O)N1)[C@@H](C)O)C(=O)N1CCC[C@H]1C(=O)N[C@@H](CO)C(=O)N[C@@H](CO)C(=O)N[C@H](C(=O)N[C@@H](CC(N)=O)C(=O)N[C@H](C(=O)NCC(=O)N[C@@H](CO)C(=O)N[C@@H](Cc1c[nH]cn1)C(=O)N[C@H](C(=O)N[C@@H](Cc1ccc(O)cc1)C(N)=O)[C@@H](C)O)C(C)C)[C@@H](C)O
notes: also called 66; compound 66
B4: N^ε1-[(4S)-4-carboxy-4-(19-carboxynonadecanoylamino)butanoyl]-[His14,Arg17,Pro21,Pro27,His34]-h-amylin (peptide)
peptide: K([γGlu-C20 diacid])CNTATCATQRLAHFLRHSSPNFGAIPSSTNVGHNTY-NH2
modifications: disulfide 2-7; N-terminus assumed
SMILES: CC[C@H](C)[C@H](NC(=O)[C@H](C)NC(=O)CNC(=O)[C@H](Cc1ccccc1)NC(=O)[C@H](CC(N)=O)NC(=O)[C@@H]1CCCN1C(=O)[C@H](CO)NC(=O)[C@H](CO)NC(=O)[C@H](Cc1c[nH]cn1)NC(=O)[C@H](CCCNC(=N)N)NC(=O)[C@H](CC(C)C)NC(=O)[C@H](Cc1ccccc1)NC(=O)[C@H](Cc1c[nH]cn1)NC(=O)[C@H](C)NC(=O)[C@H](CC(C)C)NC(=O)[C@H](CCCNC(=N)N)NC(=O)[C@H](CCC(N)=O)NC(=O)[C@@H](NC(=O)[C@H](C)NC(=O)[C@@H]1CSSC[C@H](NC(=O)[C@@H](N)CCCCNC(=O)CC[C@H](NC(=O)CCCCCCCCCCCCCCCCCCC(=O)O)C(=O)O)C(=O)N[C@@H](CC(N)=O)C(=O)N[C@@H]([C@@H](C)O)C(=O)N[C@@H](C)C(=O)N[C@@H]([C@@H](C)O)C(=O)N1)[C@@H](C)O)C(=O)N1CCC[C@H]1C(=O)N[C@@H](CO)C(=O)N[C@@H](CO)C(=O)N[C@H](C(=O)N[C@@H](CC(N)=O)C(=O)N[C@H](C(=O)NCC(=O)N[C@@H](Cc1c[nH]cn1)C(=O)N[C@@H](CC(N)=O)C(=O)N[C@H](C(=O)N[C@@H](Cc1ccc(O)cc1)C(N)=O)[C@@H](C)O)C(C)C)[C@@H](C)O
notes: also called 81; compound 81
B5: N^ε1-[(4S)-4-carboxy-4-[[(4S)-4-carboxy-4-(19-carboxynonadecanoylamino)butanoyl]amino]butanoyl]-[Arg17,Pro21,Pro27,His34]-h-amylin (peptide)
peptide: K([γGlu-γGlu-C20 diacid])CNTATCATQRLANFLRHSSPNFGAIPSSTNVGHNTY-NH2
modifications: disulfide 2-7; N-terminus assumed
SMILES: CC[C@H](C)[C@H](NC(=O)[C@H](C)NC(=O)CNC(=O)[C@H](Cc1ccccc1)NC(=O)[C@H](CC(N)=O)NC(=O)[C@@H]1CCCN1C(=O)[C@H](CO)NC(=O)[C@H](CO)NC(=O)[C@H](Cc1c[nH]cn1)NC(=O)[C@H](CCCNC(=N)N)NC(=O)[C@H](CC(C)C)NC(=O)[C@H](Cc1ccccc1)NC(=O)[C@H](CC(N)=O)NC(=O)[C@H](C)NC(=O)[C@H](CC(C)C)NC(=O)[C@H](CCCNC(=N)N)NC(=O)[C@H](CCC(N)=O)NC(=O)[C@@H](NC(=O)[C@H](C)NC(=O)[C@@H]1CSSC[C@H](NC(=O)[C@@H](N)CCCCNC(=O)CC[C@H](NC(=O)CC[C@H](NC(=O)CCCCCCCCCCCCCCCCCCC(=O)O)C(=O)O)C(=O)O)C(=O)N[C@@H](CC(N)=O)C(=O)N[C@@H]([C@@H](C)O)C(=O)N[C@@H](C)C(=O)N[C@@H]([C@@H](C)O)C(=O)N1)[C@@H](C)O)C(=O)N1CCC[C@H]1C(=O)N[C@@H](CO)C(=O)N[C@@H](CO)C(=O)N[C@H](C(=O)N[C@@H](CC(N)=O)C(=O)N[C@H](C(=O)NCC(=O)N[C@@H](Cc1c[nH]cn1)C(=O)N[C@@H](CC(N)=O)C(=O)N[C@H](C(=O)N[C@@H](Cc1ccc(O)cc1)C(N)=O)[C@@H](C)O)C(C)C)[C@@H](C)O
notes: also called 86; compound 86
B6: N^ε1-[(4S)-4-carboxy-4-(19-carboxynonadecanoylamino)butanoyl]-[His14,Arg17,Pro21,Pro27,Pro31]-h-amylin (peptide)
peptide: K([γGlu-C20 diacid])CNTATCATQRLAHFLRHSSPNFGAIPSSTPVGSNTY-NH2
modifications: disulfide 2-7; N-terminus assumed
SMILES: CC[C@H](C)[C@H](NC(=O)[C@H](C)NC(=O)CNC(=O)[C@H](Cc1ccccc1)NC(=O)[C@H](CC(N)=O)NC(=O)[C@@H]1CCCN1C(=O)[C@H](CO)NC(=O)[C@H](CO)NC(=O)[C@H](Cc1c[nH]cn1)NC(=O)[C@H](CCCNC(=N)N)NC(=O)[C@H](CC(C)C)NC(=O)[C@H](Cc1ccccc1)NC(=O)[C@H](Cc1c[nH]cn1)NC(=O)[C@H](C)NC(=O)[C@H](CC(C)C)NC(=O)[C@H](CCCNC(=N)N)NC(=O)[C@H](CCC(N)=O)NC(=O)[C@@H](NC(=O)[C@H](C)NC(=O)[C@@H]1CSSC[C@H](NC(=O)[C@@H](N)CCCCNC(=O)CC[C@H](NC(=O)CCCCCCCCCCCCCCCCCCC(=O)O)C(=O)O)C(=O)N[C@@H](CC(N)=O)C(=O)N[C@@H]([C@@H](C)O)C(=O)N[C@@H](C)C(=O)N[C@@H]([C@@H](C)O)C(=O)N1)[C@@H](C)O)C(=O)N1CCC[C@H]1C(=O)N[C@@H](CO)C(=O)N[C@@H](CO)C(=O)N[C@H](C(=O)N1CCC[C@H]1C(=O)N[C@H](C(=O)NCC(=O)N[C@@H](CO)C(=O)N[C@@H](CC(N)=O)C(=O)N[C@H](C(=O)N[C@@H](Cc1ccc(O)cc1)C(N)=O)[C@@H](C)O)C(C)C)[C@@H](C)O
notes: also called 62; compound 62

Molecular target: T1, human amylin receptor (amylin 3(a) receptor: human calcitonin receptor with RAMP-3) (human, UniProt P30988 25-474; O60896 24-148)
T1 construct: whole, on cells; also called hAmylin-R; hAmylinR
T1 sequence (looked up) 1: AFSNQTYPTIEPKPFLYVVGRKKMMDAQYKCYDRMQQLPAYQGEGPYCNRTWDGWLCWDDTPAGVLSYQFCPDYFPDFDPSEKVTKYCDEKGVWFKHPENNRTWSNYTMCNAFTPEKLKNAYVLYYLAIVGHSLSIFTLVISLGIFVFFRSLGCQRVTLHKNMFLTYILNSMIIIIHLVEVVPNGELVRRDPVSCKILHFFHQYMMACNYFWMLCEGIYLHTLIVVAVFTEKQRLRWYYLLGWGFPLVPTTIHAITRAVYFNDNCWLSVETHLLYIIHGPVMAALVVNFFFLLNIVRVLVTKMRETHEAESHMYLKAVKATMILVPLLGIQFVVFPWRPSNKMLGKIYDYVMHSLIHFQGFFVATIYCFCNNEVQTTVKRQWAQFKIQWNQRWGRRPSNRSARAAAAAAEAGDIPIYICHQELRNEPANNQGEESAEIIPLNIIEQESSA
T1 sequence (looked up) 2: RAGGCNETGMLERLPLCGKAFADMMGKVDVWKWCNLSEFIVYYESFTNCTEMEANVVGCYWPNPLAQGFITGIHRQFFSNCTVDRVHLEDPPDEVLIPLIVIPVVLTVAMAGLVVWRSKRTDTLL
Test: SPA displacement of 125I-rat amylin, hAmylin 3(a) receptor membranes
Outline: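 Cell membranes were prepared by homogenisation in Na-HEPES/EDTA buffer, pH 7.4, and stored at −80° C. They were then coupled to SPA beads at 35 ng/μL final and exposed to compounds in assay buffer containing CaCl2, MgCl₂, OA and Tween20. After 120 min at 25° C, plates were counted and IC₅₀ derived.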

Going from B1 to B2, the IC50 falls from 0.876 nM to 0.169 nM (5.2-fold).

B3 and B4 are within 1.5-fold of each other in IC50: 0.396 nM for the first, 0.271 nM for the second.

First: B5
Second: B6
The IC50 of the first is 8.5-fold higher: 0.833 nM for the first, 0.098 nM for the second. The second is the more potent here.
